A protein production outcome set (Wang et al. 2014)

Assay: label from the status in PepcDB records

Row | Sequence | protein production
1 | MDPNVITVTSYANIAIIKYWGKENQAKMIPSTSSISLTLENMFTTTSVSFLPDTATSDQFYINGILQNDEEHTKISAIIDQFRQPGQAFVKMETQNNMPTAAGLSSSSSGLSALVKACDQLFDTQLDQKALAQKAKFASGSSSRSFFGPVAAWDKDSGAIYKVETDLKMAMIMLVLNAAKKPISSREGMKLCRDTSTTFDQWVEQSAIDYQHMLTYLKTNNFEKVGQLTEANALAMHATTKTANPPFSYLTKESYQAMEAVKELRQEGFACYFTMDAGPNVKVLCLEKDLAQLAERLGKNYRIIVSKTKDLPDV | not failed
2 | MTDKKSENKTIQGASSLSLENRKILSITGVNEVINFDEEKISLKTDLGPLLIKGSELKMNKLDVQNGEVIIGGFISNIDYLNKKNKRKRNINLLSKIFKLEHHHHHH | not failed
3 | MNQPDIKGSCASEFTKVRDAFERNFVLRNEVGAAVAVWVDGDLVVNLWGGSADAGGTRPWQHDTLATVLSGTKALTATCVHQLVDRGELDLHAPVARYWPEFGQAGKQAITLAMVMSHRSGAIGPRGRLGWEQVADWDFVCEQLAAAEPWWQPGAAQGYHMTTFGFILGEVFRRVTGRTVGQYLRTEIAEPLGADVHIGLHPGEQLRCADLVDKPHIRQLLADVQAPGYPTSLNEHPKAALSVSMGFAPDDELGSNDLQLWRQIEFPGTNGQVSALGLATFYNGLAQEKLLSREHMELVRVSQGGFDTDLVLGPRVADHGWGLGYMLNQRGVNGPNPRIFGHGGLGGSFGFVDLEHRIGYAYVMNRFDATKANADPRSVVLSNEVYAALGVNRS | failed
4 | MRSPYLIGVFLAAGKSRRMGQNKLALPLKGENIGSLSLKTALSSRLDHVLVVERTEHASLEWIGAPYHAPPFQKRWSLHVCQDAEKGQGHSVSSGVRKAESMGADGIVILLADQPQLSVDHLNALVALAPESFAVSSFLGAFTPPIYFSSTCFPYVKGLKGDEGARRLLKSGQLGAGAVLEAKDSGELDDIDTPRGILEHHHHHH | not failed
5 | VRSQVLKYMVPGARVIRGLDWKWRDQDGSPQGEGTVTGELHNGWIDVTWDAGGSNSYRMGAEGKFDLKLAPGY | not failed
6 | MLSMVEVKIIKSDGFFNEVLISSDKKIHFDTAYAEGDFNCFGEGSIVSETTDDLKFKIANLIPGKYHFKIAIDQYKILREAENRSGSYSFSIWLEKPYHNPDYAQFCAIIDKKLMDVRIAVPKHSISVSIFTKDTLKPVYSRRASFDTFDAVEYVFDGMSDYYFEVDNSRLPKEGYFSPKVHIEHEGGSKIIYHIFPDRFFRVGPHLPTLSRWGDKPTFSSFFGGNLRGITEKIGYIKALNVDTIYLNPVYKSKSNHRYDVDDYFSIDGLLGGEQDFIELVNEAHENGIKIVADMVFNHTSTDFPYFLDALKNGKNSKYWNWYIFHGEGAAVFDGRAKGKTKPLYETFMGVGRMPKLNHKNAEVRKFCIDVMKYYKNKFGVDGFRYDVAHSIYPEFFLEAVKEFGNEMLHIGEAWCLPSMFMLSGYWNSFTNYYLRNAIIKFVREEINITEFYNMIQNMIISYGPLIQQNVMNILDSHDTERILRAFKGNKKKVKLAYSILFMFDGFATIYYGDEVGLDGGRDPDDRRCFPWDNMDEDMLQFLKKLGEIRRMYHTGSAGIITVEETQECKYITRLSGESIIKVAIAKKPVTLEGEIILSSCGEKTIYEGDFALSIAKYA | failed
7 | MHPALVLAAIALIAIKLDPRFVLGLLVLLTLIYGKKRGFSLKLRNVTEDESYFNAFLFSTILSALSCFSLPKDVVFASIFLISVHNYRKNALWNIAVYTTASLLYFLCYHAVNGVELRLAHTFFISLSGGLTAALVESVDTNADRRLTLLLAISSVFTIFKMYVPSASIYSLAFAFLLSFFVSLLALYAKVADESGLMSATIVGTTLILFADIRFFAVILLFYALGSAITKYKYSVKLERGIAEQAGGARGYANVFGNSLAPLFFAVQFGVSGDAIFAAAFVAAVAAALADTMASEIGKAEEKVYLITNFSRVEPGTSGGISVKGEFAALFGCIVTALLSLLLGIIGFDVLLPVTLSAFAGVHIDSLLGATLEKKGYLTNSAVNFLGTLSAGIICVLLLLPLL | failed
8 | MTLATRTVILPGGLQATLVHQPQADRAAALARVAAGSHHEPSRFPGLAHLLEHLLFYGGERYQDDDRLMGWVQRQGGSVNATTLARHSAFFFEVAADALADGVARLQEMLQAPLLLREDIQREVAVIDAEYRLIQQHEPSRREAAVRHAASAPAAFRRFQVGSADALAGDLAALQAALGDFHRTHYVARRMQLWLQGPQSLEALGELAARFAAGLAAGEPPPPAPPLRLGEFTALQLAVSSQPALWRCPLIALSDNVTLLREFLLDEAPGSLMASLRQRRLAGDVALNWLYQDRYLGWLALVFASDRPEEVDRQITHWLQALQQTTPEQQQHYYQLSRRRFQALSPLDQLRQRAFGFAPGAPPAGFADFCAALQAAPSVSLACQTVSPGEPVATQGFSLPLSRWRRRPESDPALAFAFYPQAAGDLVAKCPEKAAPLLHLPLPEEPPRLLLRPPFYCSPDQAEGLARGEQLRPLLAALRHAGGHGEWHLFDGSWQLTLQLPEPGRRPEAILQAILRQLALPVASLTPPPESIAIRHLMAQLPERLGTSGHQKGWLAALAGGSAEDAQWVARQLSLITAPVNPPMPAPAPCRRGVERLVYPGGDTALLVFIPLPDGASLAALRLLAQHCEPLFFQRLRVEQQIGYVVSCRYQRVADRDGLLMALQSPDRRAGELLRCGKDFLRQLAPMDEATFRPLQQRLAAQNRASRPPEARALSALRQEYGLPELTPQAVDALRVAEVADLAREMTRRRRRWQVLFTTGD | failed
9 | MAAYQVLIVGAGFSGAETAFWLAQKGVRVGLLTQSLDAVMMPFLPPKPPFPPGSLLERAYDPKDERVWAFHARAKYLLEGLRPLHLFQATATGLLLEGNRVVGVRTWEGPPARGEKVVLAVGSFLGARLFLGGVVEEAGRLSEASYPDLLEDLSRLGFRFVEREGEVPETPSTPGYRVRYLAFHPEEWEEKTFRLKRLEGLYAVGLCVREGDYARMSEEGKRLAEHLLHELG | not failed
10 | MTENNQTAPNPESLDGLSYEEAREQLVAVVGRLEAGGASLEESLALWERGEALAKRCEDWLEGARKRLATARDASSDGGTPA | failed
11 | MEFWESSFIEKQTMWGFEPTESAILTKDFFLEKNVKNILVPGIGYGRNAKVFIDNGINVTGIEISKTAIDLARENGLEDVSMYHGSVNEMPFDNKLYDGIFSHALLHLLNEQEREKFIEDCYNQLKPGGYMVFTTVSKKAPMYGKGKQLDKDYYEIMDGVKMFFYDSESIKKDFNQYRLVQVSEIDEPNKNMANKPSINFLMIKCKKER | failed
12 | MRWFILCLRKYVDFKGRARRKEFWLFTLFYLIALVIPPAVIIPIAVIYRHTIDIALCIRICVVVEILVIFSLLLPAYAVTVRRLHDTNRSGLWVIASIVPRVLAEGLGVIFGQKWLIQIAEGEFPTLLLINMFLLLIDLCVSILILVMMCERGTEGENRFGPDPLSDGREVLMEPEPGK | failed
13 | MTTLGIVSDTHGYFHPNLADDLSGVDRILHAGDVGDPAILDGLEAVAPVTAVWGNIDDASLRRRLAEHERFTVAGLDVWMTHIAGRPGRWQDGMGTKLEATPPDVLVCGHSHILQVERVAALDDMLYVNPGAAGKQGFHQTKTCLRLAVEDGRATEAAVVHLDPDASPAQAPDP | failed
14 | MTSVSGCGSVSLITNRSAFLGNGLQHRAVFLKPWSSSSLQSRSMVVEAKTKTSSEDRIARHSRIRKKVNGTTERPRLCVFRSNKHLYVQVIDDTKMHTLASASTKQKPISEEFDYTSGPTIEVAKKVGEVIAKSCLEKGITKVAFDRGGYPYHGRIEALAAAAREHGLQF | failed
15 | MHNFEEELTCPICYSIFEDPRVLPCSHTFCRNCLENILQASGNFYIWRPLRIPLKCPNCRSITEIAPTGIESLPVNFALRAIIEKYQQEDHPDIVTCPEHYRQPLNVYCLLDKKLVCGHCLTIGQHHGHPIDDLQSAYLKEKDTPQKLLEQLTDTHWTDLTHLIEKPKEQKSHSEKMIQGDKEAVLQYFKELNDTLEQKKKSFLTALCDVGNLINQEYTPQIERMKEIREQQLELMALTISLQEESPLKFLEKVDDVRQHVQILKQRPLPEVQPVEIYPRVSKILKEEWSRTEIGQIKNVLIPKMKISPKRMSCSWPGTPVYSVAWGPDSEKVLYTAGKQLIIKPLQPNAKVLQWKAHDGIILKVDWNSVNDLILSAGEDCKYKVWDSYGRPLYNSQPHEHPITSVAWAPDGELFAVGSFHTLRLCDKTGWSYALEKPNTGSIFNIAWSIDGTQIAGACGNGHVVFAHVVEQHWEWKNFQVTLTKRRAMQVRNVLNDAVDLLEFRDRVIKASLNYAHLVVSTSLQCYVFSTKNWNTPIIFDLKEGTVSLILQAERHFLLVDGSSIYLYSYEGRFISSPKFPGMRTDILNAQTVSLSNDTIAIRDKADEKIIFLFEASTGKPLGDGKFLSHKNEILEIALDQKGLTNDRKIAFIDKNRDLCITSVKRFGKEEQIIKLGTMVHTLAWNDTCNILCGLQDTRFIVWYYPNTVYVDRDILPKTLYERDASEFSKNPHIVSFVGNQVTIRRADGSLVHISITPYPAILHEYVSSSKWEDAVRLCRFVKEQTMWACLAAMAVANRDMTTAEVAYAAIGEIDKVQYINSIKNLPSKESKMAHILLFSGNIQEAEIVLLQAGLVYQAIQININLYNWERALELAVKYKTHVDTVLAYRQKFLETFGKQETNKRYLHYAEGLQIDWEKIKAKIEMEITKEREQSSSSQSSKSIGLKP | failed
16 | VGKEKAEVELLQVDVDLQADIVAKYNAQLQKAVQVEEKKAREAATEAVKEMVKAEYEERYAEDENLATIMRDVAEILEQMEHAEVRRLITEDKIRPDGRKIDEIRP | failed
17 | SLATCIGEKIEDFKVGNLLGKGSFAGVYRAESIHTGLEVAIKMIDKKAMYKAGMVQRVQNEVKIHCQLKHPSILELYNYFEDSNYVYLVLEMCHNGEMNRYLKNRVKPFSENEARHFMHQIITGMLYLHSHGILHRDLTLSNLLLTRNMNIKIADFGLATQLKMPHEKHYTLCGTPNYISPEIATRSAHGLESDVWSLGCMFYTLLIGRPPFDTDTVKNTLNKVVLADYEMPSFLSIEAKDLIHQLLRRNPADRLSLSSVLDHPFMSRNSSTKSKDEG | not failed
18 | LSANYAENLQAQQRSAQRLEHQAWLRTGQTQLAQQVLGQLTLPMLGENILRFFASYLGSVVGAVYVRDEHGRLVRVACYGLSTEEQAREQIESDHHGLLAQAVREGRLLRLEELPEDFYRLSSGLGSGLPRSALLMPATEDGQINGVIELGFLRPLQERDEELLERVGGNLGMSIESA | failed
19 | MSKSLGFKVSVSFVNIFALPFFFVLLYGSGFVGAKLGLPHSTPLSFLSLRFMAAGLILLIIAKLIGNQLPNWREAIHISVAGSLTVCLFSVGVFVSIDMGLSPAVSALIVALQPILVALFARKLVNEQLNLAQWFGLLFGFLGVIVVVIDSIETTSFSWVAIAMSVLALFGVTFGSLYQKRYCADMEIFYGGAIQSLVSGLICLALLPFFESFKVVWTGEFIISLVYMVVGVSLGALSLLYIMIQRGEVSRVASVFYLVPVSAAVSAYLLFGETIESTTLFGASIIALGIFLTNRKSQNNMVVSMNK | failed
20 | DARVQVMGIDAGGTMTDTFFVKENGSFVVGKAQSNPEDESLAIYNSSQDALSHWKSDVSKVYPELVTCVYSGTAMLNRVVQRRGMEVGLICNKGFEQMHSMGRALQSYLGYALEERLHINTHKYDDPLIPLKRIRGVTERTDVKGQVVIPVRQEEVKVAVKELLEAGAKAIVICLLQSHKNAESERIVRDIALKEIEKLGKN | failed
21 | SVTIDHTTENAAPAQAPVSDRAWALFRALDGKGLVPDGYVEGWKKTFEEDFSPRRGAELVARAWTPRRGAELVARAWTDPEFRQLLLTDGTAAVAQYGYLGPQGEYIVAVEDTPTLKNVIVCSLCSCTAWPILGLPPTWYKSFEYRARVVREPRKVLSEMGTEIASDIEIRVYDTTAETRYMVLPQRPAGTEGWSQEQLQEIVTKDCLIGVAIPQVPTV | not failed
